Article PMC4336627

Target: Flag-6xHis-TET2^CD (human)
Experiment: pull-down

A stoichiometry N of 1 was found for “Flag-WT1 (purified recombinant) (from UniProt P19544 1-449) (natural protein)” in this work.
